Data published in patent US20220195388A1.

Tests used:
[1] = biological target: CD3 (TCR/CD3 complex) on the surface of Jurkat cells, PBMCs and T responder cells (UniProt P07766); assay: flow cytometry, PBMCs stained with PE-labeled OKT3 Fab-multimers and then treated with D-biotin, which disrupts the Fab to Strep-Tactin bond; remaining PE signal on live cells
[2] = biological target: CD3 (TCR/CD3 complex) on the surface of Jurkat cells, PBMCs and T responder cells (UniProt P07766); assay: flow cytometry, freshly isolated PBMCs stained with PE-labeled OKT3 Fab-multimers, before D-biotin; only live (PI negative) cells shown
[3] = biological target: CD3 (TCR/CD3 complex) on the surface of Jurkat cells, PBMCs and T responder cells (UniProt P07766); assay: flow cytometry, second staining with PE-labeled OKT3 Fab-multimers of PBMCs that had been stained, treated with D-biotin and washed (control); live cells
[4] = biological target: CD28 on the surface of PBMCs and T cells (human) (UniProt P10747); assay: flow cytometry, CD28+ cells isolated by Fab-multimer magnetic selection, released with D-biotin, washed and stained again with CD28 Fab-multimers; live CD3+ cells
[5] = biological target: CD28 on the surface of PBMCs and T cells (human) (UniProt P10747); assay: flow cytometry, freshly isolated PBMCs before selection stained with fluorescent αCD28 Fab-multimers; only live (PI negative) CD3+ cells shown
[6] = biological target: CD28 on the surface of PBMCs and T cells (human) (UniProt P10747); assay: flow cytometry, selected CD28+ cells after D-biotin and washing, stained with an α-Ig kappa light chain mAb to detect remaining Fab monomers; live CD3+ cells. The same mAb on cells before selection (negative control, no Fab) gives 2.73 in the gate.

Sequence of CD3 (TCR/CD3 complex) on the surface of Jurkat cells, PBMCs and T responder cells (P07766 23-207, one chain of several): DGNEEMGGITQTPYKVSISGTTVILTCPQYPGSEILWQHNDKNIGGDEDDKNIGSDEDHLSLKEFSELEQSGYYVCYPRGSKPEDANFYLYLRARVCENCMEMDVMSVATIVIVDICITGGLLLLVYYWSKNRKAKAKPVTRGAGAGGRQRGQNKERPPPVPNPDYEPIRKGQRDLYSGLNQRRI

“OKT3 Fab fragments multimerized with Strep-Tactin” showed a percentage of cells within gate [1] of 0.005%, a percentage of cells within gate [2] of 64.5% and a percentage of cells within gate [3] of 64.7%.
“anti-CD28 Fab fragments (from CD28.3) multimerized with Strep-Tactin (from UniProt P22629 38-163)” was tested, and the percentage of cells within gate [4] was 96.7% and the percentage of cells within gate [5] was 77.9%.
“αCD28 Fab fragment derived from the monoclonal anti-human CD28 antibody CD28.3, heavy chain C-terminally fused to the Twin-Strep-tag (monomeric)” was tested, and the percentage of cells within gate [6] was 5.91%.
